Measured values: US20260275378A1 (4D MOLECULAR THERAPEUTICS, published 2026)

Molecular target: T1, complement C3b (UniProt P01024 23-667; P01024 749-1663)
T1 construct: purified C3b (Complement Technology Inc. cat #A114) in the cleavage assay; also called purified C3b; C3b fragment
Assay: C3b binding ELISA, C3b-coated plate, HEK293T supernatant
Experimental: C3b binding ELISA. The C3b binding ELISA is an in-house ELISA adapted from Nichols et. al. ([…] The assay tests if CpG-free miniCFH retains direct C3b binding ability by utilizing monoclonal anti-CFH blocking antibodies to prevent miniCFH binding to a C3b coated plate. The assay was carried out with both full-length recombinant CFH as proof of concept, and supernatants from 293T cells transfected with CpG-free miniCFH. As a control, we included conditions of mock incubation of CFH and transfected cell supernatant with no antibodies.

T1 sequence (P01024 23-667 limits assumed, chain 1 of 2): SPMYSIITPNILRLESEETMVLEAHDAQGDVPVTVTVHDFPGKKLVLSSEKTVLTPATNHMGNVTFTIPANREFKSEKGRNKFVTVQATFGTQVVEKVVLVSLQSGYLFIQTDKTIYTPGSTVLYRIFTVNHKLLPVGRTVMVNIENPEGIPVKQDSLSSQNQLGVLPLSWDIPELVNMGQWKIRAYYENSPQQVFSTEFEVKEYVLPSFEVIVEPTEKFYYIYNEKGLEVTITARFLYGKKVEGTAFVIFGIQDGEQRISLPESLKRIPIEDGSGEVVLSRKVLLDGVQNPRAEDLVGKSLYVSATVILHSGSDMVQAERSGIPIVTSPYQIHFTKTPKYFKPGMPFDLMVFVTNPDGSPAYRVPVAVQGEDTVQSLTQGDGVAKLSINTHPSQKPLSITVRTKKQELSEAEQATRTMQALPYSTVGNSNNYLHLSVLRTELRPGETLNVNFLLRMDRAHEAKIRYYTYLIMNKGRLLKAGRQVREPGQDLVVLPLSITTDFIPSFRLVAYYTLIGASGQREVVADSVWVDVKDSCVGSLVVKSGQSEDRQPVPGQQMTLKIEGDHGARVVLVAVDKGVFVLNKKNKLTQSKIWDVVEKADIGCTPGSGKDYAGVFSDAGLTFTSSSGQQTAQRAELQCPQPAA
T1 sequence (P01024 749-1663 limits assumed, chain 2 of 2): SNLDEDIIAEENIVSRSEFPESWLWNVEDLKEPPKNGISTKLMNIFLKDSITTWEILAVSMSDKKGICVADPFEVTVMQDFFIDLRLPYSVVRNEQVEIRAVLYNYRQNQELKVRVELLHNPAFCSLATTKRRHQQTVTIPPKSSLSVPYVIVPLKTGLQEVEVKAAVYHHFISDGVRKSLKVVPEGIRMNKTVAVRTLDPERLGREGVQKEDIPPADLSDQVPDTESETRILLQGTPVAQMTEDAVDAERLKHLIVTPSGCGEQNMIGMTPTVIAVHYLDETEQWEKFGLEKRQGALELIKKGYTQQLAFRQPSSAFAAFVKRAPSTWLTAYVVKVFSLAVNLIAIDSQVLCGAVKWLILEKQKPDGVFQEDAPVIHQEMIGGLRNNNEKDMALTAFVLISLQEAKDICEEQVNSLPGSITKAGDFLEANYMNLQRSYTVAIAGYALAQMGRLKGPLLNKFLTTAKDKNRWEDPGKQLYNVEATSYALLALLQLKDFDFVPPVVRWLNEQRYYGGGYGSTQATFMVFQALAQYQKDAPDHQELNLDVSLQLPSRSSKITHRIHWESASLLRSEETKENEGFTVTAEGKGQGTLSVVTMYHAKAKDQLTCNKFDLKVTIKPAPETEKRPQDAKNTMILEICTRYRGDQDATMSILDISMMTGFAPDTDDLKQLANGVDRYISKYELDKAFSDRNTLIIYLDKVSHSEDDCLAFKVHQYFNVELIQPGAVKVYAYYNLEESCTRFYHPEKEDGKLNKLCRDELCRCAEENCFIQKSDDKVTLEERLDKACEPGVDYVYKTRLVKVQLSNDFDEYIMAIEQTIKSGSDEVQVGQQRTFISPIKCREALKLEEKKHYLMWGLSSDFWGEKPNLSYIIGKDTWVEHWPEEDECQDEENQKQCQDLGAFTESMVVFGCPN

binding result: binds
B1: miniCFH (shortened form of human complement factor H containing SCRs 1-4, 6-8 and 17-20) (other)
chain: EDCNELPPRRNTEILTGSWSDQTYPEGTQAIYKCRPGYRSLGNIIMVCRKGEWVALNPLRKCQKRPCGHPGDTPFGTFTLTGGNVFEYGVKAVYTCNEGYQLLGEINYRECDTDGWTNDIPICEVVKCLPVTAPENGKIVSSAMEPDREYHFGQAVRFVCNSGYKIEGDEEMHCSDDGFWSKEKPKCVEISCKSPDVINGSPISQKIIYKENERFQYKCNMGYEYSERGDAVCTESGWRPLPSCEEKSTLKPCDYPDIKHGGLYHENMRRPYFPVAVGKYYSYYCDEHFETPSGSYWDHIHCTQDGWSPAVPCLRKCYFPYLENGYNQNYGRKFVQGKSIDVACHPGYALPKAQTTVTCMENGWSPTPRCIRVKTCSKSSIDIENGFISESQYTYALKEKAKYQCKLGYVTADGETSGSITCGKDGWSAQPTCIKSIKTDCLSLPSFENAIPMGEKKDVYKAGEQVTYTCATYYKMDGASNVTCINSRWTGRPTCRDTSCVNPPTVQNAYIVSRQMSKYPSGERVRYQCRSPYEMFGDEEVMCLNGNWTEPPQCKDSTGKCGPPPPIDNGDITSFPLSVYAPASSVEYQCQNLYQLEGNKRITCRNGQWSEPPKCLHPCVISREIMENYNIALRWTAKQKLYSRTGESVEFVCKRGYRLSSRSHTLRTTCWDGKLEYPTCAKR
notes: Tested as unpurified serum-free supernatant of HEK293T cells transfected with the rAAV plasmid cassette; also called CpG-free miniCFH; short CFH
